Source: article PMC6707142, “Orthogonal monoterpenoid biosynthesis in yeast constructed on an isomeric substrate” (Nature Communications, 2019)

Key:
purified protein = substrate: C=C(C)CCO[P@@](=O)(O)OP(=O)(O)O; test: purified protein; settings: 0.05 mM DMAPP, 10 mM MOPS pH 7.0, 5 mM MgCl2, 30 °C, 1 h
[1] = substrate: CC(C)=CCOP(=O)(O)OP(=O)(O)O; test: GC-MS after acid hydrolysis of prenyl diphosphates; type: biochemical, Solanum lycopersicum; settings: 0.05 mM IPP, 10 mM MOPS pH 7.0, 5 mM MgCl2, 30 °C, 1 h
[2] = substrate: CC(C)=CCC/C(C)=C\COP(=O)(O)OP(=O)(O)O; test: GC-MS of hexane-extracted monoterpene products; type: biochemical, Citrus x limon; settings: 20 mM MOPS pH 7.0, 20 mM MgCl2, 0.02 mM MnCl2, 30 °C, 1 h
From the text: (§1) GC-MS of hexane-extracted monoterpene products on […]

[3] = substrate: CC(C)=CCC/C(C)=C/COP(=O)(O)OP(=O)(O)O; test: GC-MS of hexane-extracted monoterpene products; type: biochemical, Citrus x limon; settings: 20 mM MOPS pH 7.0, 20 mM MgCl2, 0.02 mM MnCl2, 30 °C, 1 h
From the text: as §1

[4] = substrate: CC(C)=CCC/C(C)=C\COP(=O)(O)OP(=O)(O)O; test: GC-MS of hexane-extracted monoterpene products; type: biochemical, Salvia fruticosa; settings: 20 mM MOPS pH 7.0, 20 mM MgCl2, 0.02 mM MnCl2, 30 °C, 1 h
From the text: (§2) GC-MS of hexane-extracted monoterpene products on […]1

[5] = substrate: CC(C)=CCC/C(C)=C/COP(=O)(O)OP(=O)(O)O; test: GC-MS of hexane-extracted monoterpene products; type: biochemical, Salvia fruticosa; settings: 20 mM MOPS pH 7.0, 20 mM MgCl2, 0.02 mM MnCl2, 30 °C, 1 h
From the text: as §2

B1: SlNPPS1 (Solanum lycopersicum) (protein)
chain: SARGLNKISCSLNLQTEKLCYEDNDNDLDEELMPKHIALIMDGNRRWAKDKGLEVYEGHKHIIPKLKEICDISSKLGIQIITAFAFSTENWKRSKEEVDFLLQMFEEIYDEFSRSGVRVSIIGCKSDLPMTLQKCIALTEETTKGNKGLHLVIALNYGGYYDILQATKSIVNKAMNGLLDVEDINKNLFDQELESKCPNPDLLIRTGGEQRVSNFLLWQLAYTEFYFTNTLFPDFGEEDLKEAIMNFQQRHRRFGGHTY
Km (purified protein): 83.69 ± 17.41 µM | kcat (purified protein): 0.000683 ± 5e-05 s⁻¹ | Km [1]: 66.72 ± 6.32 µM | kcat [1]: 0.000617 ± 1.7e-05 s⁻¹

B2: ClLimS (Citrus x limon) (protein)
chain: AKYKPVQCLISAKYDNLTVDRRSANYQPSIWDHDFLQSLNSNYTDEAYKRRAEELRGKVKIAIKDVIEPLDQLELIDNLQRLGLAHRFETEIRNILNNIYNNNKDYNWRKENLYATSLEFRLLRQHGYPVSQEVFNGFKDDQGGFICDDFKGILSLHEASYYSLEGESIMEEAWQFTSKHLKEVMISKNMEEDVFVAEQAKRALELPLHWKVPMLEARWFIHIYERREDKNHLLLELAKMEFNTLQAIYQEELKEISGWWKDTGLGEKLSFARNRLVASFLWSMGIAFEPQFAYCRRVLTISIALITVIDDIYDVYGTLDELEIFTDAVERWDINYALKHLPGYMKMCFLALYNFVNEFAYYVLKQQDFDLLLSIKNAWLGLIQAYLVEAKWYHSKYTPKLEEYLENGLVSITGPLIITISYLSGTNPIIKKELEFLESNPDIVHWSSKIFRLQDDLGTSSDEIQRGDVPKSIQCYMHETGASEEVARQHIKDMMRQMWKKVNAYTADKDSPLTGTTTEFLLNLVRMSHFMYLHGDGHGVQNQETIDVGFTLLFQPIPLEDKHMAFTASPGTKG
notes: 6xHis-tagged, E. coli BL21(DE3), Ni-NTA purified; printed as (+)-S-limonene synthase
Km [2]: 81.55 ± 7.33 µM | kcat [2]: 0.619 ± 0.0293 s⁻¹ | kcat/Km [2]: 7600 M⁻¹ s⁻¹ | Km [3]: 24.94 ± 3.76 µM | kcat [3]: 0.306 ± 0.0147 s⁻¹ | kcat/Km [3]: 12200 M⁻¹ s⁻¹

B3: ClLimS (Citrus x limon; H570Y) (protein)
chain: AKYKPVQCLISAKYDNLTVDRRSANYQPSIWDHDFLQSLNSNYTDEAYKRRAEELRGKVKIAIKDVIEPLDQLELIDNLQRLGLAHRFETEIRNILNNIYNNNKDYNWRKENLYATSLEFRLLRQHGYPVSQEVFNGFKDDQGGFICDDFKGILSLHEASYYSLEGESIMEEAWQFTSKHLKEVMISKNMEEDVFVAEQAKRALELPLHWKVPMLEARWFIHIYERREDKNHLLLELAKMEFNTLQAIYQEELKEISGWWKDTGLGEKLSFARNRLVASFLWSMGIAFEPQFAYCRRVLTISIALITVIDDIYDVYGTLDELEIFTDAVERWDINYALKHLPGYMKMCFLALYNFVNEFAYYVLKQQDFDLLLSIKNAWLGLIQAYLVEAKWYHSKYTPKLEEYLENGLVSITGPLIITISYLSGTNPIIKKELEFLESNPDIVHWSSKIFRLQDDLGTSSDEIQRGDVPKSIQCYMHETGASEEVARQHIKDMMRQMWKKVNAYTADKDSPLTGTTTEFLLNLVRMSHFMYLHGDGYGVQNQETIDVGFTLLFQPIPLEDKHMAFTASPGTKG
notes: as for B2
Km [2]: 23.98 ± 6.41 µM | kcat [2]: 0.364 ± 0.0277 s⁻¹ | kcat/Km [2]: 15200 M⁻¹ s⁻¹ | Km [3]: 11.76 ± 4.82 µM | kcat [3]: 0.149 ± 0.00717 s⁻¹ | kcat/Km [3]: 12600 M⁻¹ s⁻¹

B4: ClLimS (Citrus x limon; H570I) (protein)
chain: AKYKPVQCLISAKYDNLTVDRRSANYQPSIWDHDFLQSLNSNYTDEAYKRRAEELRGKVKIAIKDVIEPLDQLELIDNLQRLGLAHRFETEIRNILNNIYNNNKDYNWRKENLYATSLEFRLLRQHGYPVSQEVFNGFKDDQGGFICDDFKGILSLHEASYYSLEGESIMEEAWQFTSKHLKEVMISKNMEEDVFVAEQAKRALELPLHWKVPMLEARWFIHIYERREDKNHLLLELAKMEFNTLQAIYQEELKEISGWWKDTGLGEKLSFARNRLVASFLWSMGIAFEPQFAYCRRVLTISIALITVIDDIYDVYGTLDELEIFTDAVERWDINYALKHLPGYMKMCFLALYNFVNEFAYYVLKQQDFDLLLSIKNAWLGLIQAYLVEAKWYHSKYTPKLEEYLENGLVSITGPLIITISYLSGTNPIIKKELEFLESNPDIVHWSSKIFRLQDDLGTSSDEIQRGDVPKSIQCYMHETGASEEVARQHIKDMMRQMWKKVNAYTADKDSPLTGTTTEFLLNLVRMSHFMYLHGDGIGVQNQETIDVGFTLLFQPIPLEDKHMAFTASPGTKG
notes: as for B2
Km [2]: 27.06 ± 4.72 µM | kcat [2]: 0.0317 ± 0.00217 s⁻¹ | kcat/Km [2]: 1170 M⁻¹ s⁻¹ | Km [3]: 24.43 ± 6.44 µM | kcat [3]: 0.0035 ± 0.000333 s⁻¹ | kcat/Km [3]: 150 M⁻¹ s⁻¹

B5: SfCinS1 (Salvia fruticosa; F571V) (protein)
chain: CSLQTGNEIQTERRTGGYQPTLWDFSTIQSFDSEYKEEKHLMRAAGMIDQVKMMLQEEVDSIRRLELIDDLRRLGISCHFEREIVEILNSKYYTNNEIDERDLYSTALRFRLLRQYDFSVSQEVFDCFKNAKGTDFKPSLVDDTRGLLQLYEASFLSAQGEETLRLARDFATKFLQKRVLVDKDINLLSSIERALELPTHWRVQMPNARSFIDAYKRRPDMNPTVLELAKLDFNMVQAQFQQELKEASRWWNSTGLVHELPFVRDRIVECYYWTTGVVERRQHGYERIMLTKINALVTTIDDVFDIYGTLEELQLFTTAIQRWDIESMKQLPPYMQICYLALFNFVNEMAYDTLRDKGFDSTPYLRKVWVGLIESYLIEAKWYYKGHKPSLEEYMKNSWISIGGIPILSHLFFRLTDSIEEEAAESMHKYHDIVRASCTILRLADDMGTSLDEVERGDVPKSVQCYMNEKNASEEEAREHVRSLIDQTWKMMNKEMMTSSFSKYFVEVSANLARMAQWIYQHESDGVGMQHSLVNKMLRDLLFHRYE
notes: 6xHis-tagged, E. coli BL21(DE3), Ni-NTA purified
Km [4]: 67.24 ± 13.30 µM | kcat [4]: 0.0075 ± 0.000667 s⁻¹ | kcat/Km [4]: 117 M⁻¹ s⁻¹ | Km [5]: 271.5 ± 95.30 µM | kcat [5]: 0.00533 ± 0.00133 s⁻¹ | kcat/Km [5]: 16.7 M⁻¹ s⁻¹

B6: SfCinS1 (Salvia fruticosa; F571L) (protein)
chain: CSLQTGNEIQTERRTGGYQPTLWDFSTIQSFDSEYKEEKHLMRAAGMIDQVKMMLQEEVDSIRRLELIDDLRRLGISCHFEREIVEILNSKYYTNNEIDERDLYSTALRFRLLRQYDFSVSQEVFDCFKNAKGTDFKPSLVDDTRGLLQLYEASFLSAQGEETLRLARDFATKFLQKRVLVDKDINLLSSIERALELPTHWRVQMPNARSFIDAYKRRPDMNPTVLELAKLDFNMVQAQFQQELKEASRWWNSTGLVHELPFVRDRIVECYYWTTGVVERRQHGYERIMLTKINALVTTIDDVFDIYGTLEELQLFTTAIQRWDIESMKQLPPYMQICYLALFNFVNEMAYDTLRDKGFDSTPYLRKVWVGLIESYLIEAKWYYKGHKPSLEEYMKNSWISIGGIPILSHLFFRLTDSIEEEAAESMHKYHDIVRASCTILRLADDMGTSLDEVERGDVPKSVQCYMNEKNASEEEAREHVRSLIDQTWKMMNKEMMTSSFSKYFVEVSANLARMAQWIYQHESDGLGMQHSLVNKMLRDLLFHRYE
notes: as for B5
Km [4]: 71.82 ± 17.63 µM | kcat [4]: 0.0107 ± 0.00133 s⁻¹ | kcat/Km [4]: 150 M⁻¹ s⁻¹ | Km [5]: 55.72 ± 9.22 µM | kcat [5]: 0.00733 ± 0.00117 s⁻¹ | kcat/Km [5]: 133 M⁻¹ s⁻¹

B7: SfCinS1 (Salvia fruticosa; F571H) (protein)
chain: CSLQTGNEIQTERRTGGYQPTLWDFSTIQSFDSEYKEEKHLMRAAGMIDQVKMMLQEEVDSIRRLELIDDLRRLGISCHFEREIVEILNSKYYTNNEIDERDLYSTALRFRLLRQYDFSVSQEVFDCFKNAKGTDFKPSLVDDTRGLLQLYEASFLSAQGEETLRLARDFATKFLQKRVLVDKDINLLSSIERALELPTHWRVQMPNARSFIDAYKRRPDMNPTVLELAKLDFNMVQAQFQQELKEASRWWNSTGLVHELPFVRDRIVECYYWTTGVVERRQHGYERIMLTKINALVTTIDDVFDIYGTLEELQLFTTAIQRWDIESMKQLPPYMQICYLALFNFVNEMAYDTLRDKGFDSTPYLRKVWVGLIESYLIEAKWYYKGHKPSLEEYMKNSWISIGGIPILSHLFFRLTDSIEEEAAESMHKYHDIVRASCTILRLADDMGTSLDEVERGDVPKSVQCYMNEKNASEEEAREHVRSLIDQTWKMMNKEMMTSSFSKYFVEVSANLARMAQWIYQHESDGHGMQHSLVNKMLRDLLFHRYE
notes: as for B5
Km [4]: 238.1 ± 34.35 µM | kcat [4]: 0.0123 ± 0.00133 s⁻¹ | kcat/Km [4]: 50 M⁻¹ s⁻¹ | Km [5]: 18.05 ± 5.07 µM | kcat [5]: 0.0143 ± 0.0015 s⁻¹ | kcat/Km [5]: 800 M⁻¹ s⁻¹

B8: SfCinS1 (Salvia fruticosa) (protein)
chain: CSLQTGNEIQTERRTGGYQPTLWDFSTIQSFDSEYKEEKHLMRAAGMIDQVKMMLQEEVDSIRRLELIDDLRRLGISCHFEREIVEILNSKYYTNNEIDERDLYSTALRFRLLRQYDFSVSQEVFDCFKNAKGTDFKPSLVDDTRGLLQLYEASFLSAQGEETLRLARDFATKFLQKRVLVDKDINLLSSIERALELPTHWRVQMPNARSFIDAYKRRPDMNPTVLELAKLDFNMVQAQFQQELKEASRWWNSTGLVHELPFVRDRIVECYYWTTGVVERRQHGYERIMLTKINALVTTIDDVFDIYGTLEELQLFTTAIQRWDIESMKQLPPYMQICYLALFNFVNEMAYDTLRDKGFDSTPYLRKVWVGLIESYLIEAKWYYKGHKPSLEEYMKNSWISIGGIPILSHLFFRLTDSIEEEAAESMHKYHDIVRASCTILRLADDMGTSLDEVERGDVPKSVQCYMNEKNASEEEAREHVRSLIDQTWKMMNKEMMTSSFSKYFVEVSANLARMAQWIYQHESDGFGMQHSLVNKMLRDLLFHRYE
notes: as for B5
Km [4]: 89.46 ± 4.99 µM | kcat [4]: 0.203 ± 0.0445 s⁻¹ | kcat/Km [4]: 2280 M⁻¹ s⁻¹ | Km [5]: 26.12 ± 2.79 µM | kcat [5]: 0.0927 ± 0.00633 s⁻¹ | kcat/Km [5]: 3550 M⁻¹ s⁻¹
